Measurements from the Immune Epitope Database (IEDB).

Experiments:
HLA-A*31:01 [1] = assay: IEDB peptide-MHC binding, purified MHC/competitive/fluorescence; filed as Kd, often an IC50 or EC50 that approximates it; ≥ and ≤ were set here for values at or beyond the usual limits of such assays; details: source organism: Vibrio parahaemolyticus AN-5034
HLA-A*69:01 [2] = assay: as above
HLA-B*15:17 = assay: as above; details: source organism: Vibrio parahaemolyticus AN-5034
HLA-A*30:01 = assay: IEDB peptide-MHC binding, purified MHC/direct/fluorescence; filed as Kd, often an IC50 or EC50 that approximates it; ≥ and ≤ were set here for values at or beyond the usual limits of such assays; details: source organism: Vibrio parahaemolyticus RIMD 2210633
HLA-B*44:02 = assay: as above; details: source organism: Vibrio parahaemolyticus RIMD 2210633
HLA-A*02:11 [3] = assay: as above; details: source organism: Vibrio parahaemolyticus RIMD 2210633
HLA-A*01:01 = assay: as above
HLA-A*11:01 = assay: as above
HLA-A*26:03 = assay: as above; details: source organism: Vibrio parahaemolyticus RIMD 2210633
HLA-A*26:01 [4] = assay: as above
HLA-A*23:01 [5] = assay: as above; details: source organism: Vibrio parahaemolyticus RIMD 2210633
HLA-A*02:50 [6] = assay: as above; details: source organism: Vibrio parahaemolyticus RIMD 2210633
HLA-B*07:02 = assay: as above
HLA-B*39:01 = assay: as above; details: source organism: Vibrio parahaemolyticus RIMD 2210633
HLA-A*24:03 [7] = assay: as above
HLA-A*02:01 [8] = assay: as above
HLA-B*46:01 [9] = assay: as above; details: source organism: Vibrio parahaemolyticus
HLA-B*15:01 [10] = assay: as above
HLA-A*02:19 [11] = assay: as above; details: source organism: Vibrio parahaemolyticus RIMD 2210633
HLA-B*08:01 = assay: as above
HLA-A*02:12 [12] = assay: as above; details: source organism: Vibrio parahaemolyticus RIMD 2210633
HLA-B*40:01 = assay: as above
HLA-B*51:01 = assay: as above; details: source organism: Vibrio parahaemolyticus RIMD 2210633
HLA-B*27:05 = assay: as above
HLA-B*57:01 [13] = assay: as above; details: source organism: Vibrio parahaemolyticus
HLA-B*58:01 = assay: as above
HLA-A*03:01 [14] = assay: as above
HLA-B*48:01 = assay: as above; details: source organism: Vibrio parahaemolyticus
HLA-A*29:02 = assay: as above; details: source organism: Vibrio parahaemolyticus RIMD 2210633
HLA-A*02:11 [15] = assay: IEDB peptide-MHC binding, purified MHC/competitive/fluorescence; filed as Kd, often an IC50 or EC50 that approximates it; ≥ and ≤ were set here for values at or beyond the usual limits of such assays
HLA-A*02:06 = assay: as above
HLA-A*02:01 [16] = assay: as above
HLA-A*02:03 = assay: as above
HLA-A*02:19 [17] = assay: as above; details: source organism: Human immunodeficiency virus 1
HLA-A*02:12 [18] = assay: as above
HLA-A*02:16 = assay: as above
HLA-A*02:50 [19] = assay: as above; details: source organism: Pasteurella multocida subsp. multocida str. Pm70
HLA-A*31:01 [20] = assay: IEDB peptide-MHC binding, purified MHC/direct/fluorescence; filed as Kd, often an IC50 or EC50 that approximates it; ≥ and ≤ were set here for values at or beyond the usual limits of such assays; details: source organism: Pasteurella multocida
HLA-A*69:01 [21] = assay: as above; details: source organism: Pasteurella multocida
HLA-B*27:03 = assay: IEDB peptide-MHC binding, purified MHC/competitive/fluorescence; filed as Kd, often an IC50 or EC50 that approximates it; ≥ and ≤ were set here for values at or beyond the usual limits of such assays; details: source organism: Vibrio vulnificus CMCP6
HLA-A*26:01 [22] = assay: as above; details: source organism: Vibrio vulnificus CMCP6
HLA-A*23:01 [23] = assay: as above; details: source organism: Vibrio vulnificus CMCP6
HLA-A*24:03 [24] = assay: as above; details: source organism: Vibrio vulnificus CMCP6
HLA-B*46:01 [25] = assay: as above; details: source organism: Vibrio vulnificus CMCP6
HLA-B*15:01 [26] = assay: as above; details: source organism: Vibrio vulnificus CMCP6
HLA-B*57:01 [27] = assay: as above; details: source organism: Vibrio vulnificus CMCP6
HLA-A*03:01 [28] = assay: as above; details: source organism: Vibrio vulnificus CMCP6
HLA-B*18:01 = assay: as above; details: source organism: Vibrio vulnificus CMCP6
[29] = source organism: Vibrio parahaemolyticus
[30] = source organism: Vibrio parahaemolyticus RIMD 2210633
[31] = source organism: Human immunodeficiency virus 1
[32] = source organism: Pasteurella multocida subsp. multocida str. Pm70
[33] = source organism: Pasteurella multocida
[34] = source organism: Vibrio vulnificus CMCP6

In the case of DTWHGFKNM, the Kd (HLA-A*31:01 [1]) is reported as ≥ 20 µM, the Kd (HLA-A*69:01 [2]; source organism: Vibrio parahaemolyticus AN-5034) is reported as 0.0223 µM and the Kd (HLA-B*15:17) is reported as ≥ 20 µM. For the same sequence, the Kd (HLA-A*30:01) was ≥ 20 µM, the Kd (HLA-B*44:02) was ≥ 20 µM and the Kd (HLA-A*02:11 [3]) was ≥ 20 µM. For the same sequence, the Kd (HLA-A*01:01; [29]) was ≥ 20 µM, the Kd (HLA-A*11:01; [29]) was ≥ 20 µM and the Kd (HLA-A*26:03) was 0.011 µM. For the same sequence, the Kd (HLA-A*26:01 [4]; [30]) was 0.171 µM, the Kd (HLA-A*23:01 [5]) was ≥ 20 µM and the Kd (HLA-A*02:50 [6]) was ≥ 20 µM. The Kd (HLA-B*07:02; [29]) was ≥ 20 µM, the Kd (HLA-B*39:01) was ≥ 20 µM and the Kd (HLA-A*24:03 [7]; [30]) was ≥ 20 µM. For the same sequence, the Kd (HLA-A*02:01 [8]; [29]) was ≥ 20 µM, the Kd (HLA-B*46:01 [9]) was ≥ 20 µM and the Kd (HLA-B*15:01 [10]; [29]) was ≥ 20 µM. The Kd (HLA-A*02:19 [11]) was ≥ 20 µM, the Kd (HLA-B*08:01; [30]) was ≥ 20 µM and the Kd (HLA-A*02:12 [12]) was ≥ 20 µM. The Kd (HLA-B*40:01; [29]) was ≥ 20 µM, the Kd (HLA-B*51:01) was ≥ 20 µM and the Kd (HLA-B*27:05; [29]) was ≥ 20 µM. For the same sequence, the Kd (HLA-B*57:01 [13]) was ≥ 20 µM, the Kd (HLA-B*58:01; [29]) was ≥ 20 µM and the Kd (HLA-A*03:01 [14]; [29]) was ≥ 20 µM. The Kd (HLA-B*48:01) was ≥ 20 µM and the Kd (HLA-A*29:02) was ≥ 20 µM.
For FLGKIWPS, the Kd (HLA-A*02:11 [15]; [31]) was ≤ 0.0001 µM, the Kd (HLA-A*02:06; [31]) was ≤ 0.0001 µM and the Kd (HLA-A*69:01 [2]; [31]) was 2.76 µM. The Kd (HLA-A*02:01 [16]; [31]) was 0.00325 µM, the Kd (HLA-A*02:03; [31]) was ≤ 0.0001 µM and the Kd (HLA-A*02:19 [17]) was 0.0004 µM. The Kd (HLA-A*02:12 [18]; [31]) was ≤ 0.0001 µM and the Kd (HLA-A*02:16; [31]) was ≤ 0.0001 µM.
LLKDLMPFV was tested, and the Kd (HLA-A*02:11 [15]; [32]) was ≤ 0.0001 µM, the Kd (HLA-A*02:06; [32]) was ≤ 0.0001 µM and the Kd (HLA-A*02:50 [19]) was ≤ 0.0001 µM. For the same sequence, the Kd (HLA-A*02:03; [32]) was ≤ 0.0001 µM, the Kd (HLA-A*02:12 [18]; [32]) was ≤ 0.0001 µM and the Kd (HLA-A*31:01 [20]) was 1.46 µM. For the same sequence, the Kd (HLA-A*01:01; [33]) was ≥ 20 µM, the Kd (HLA-A*11:01; [33]) was ≥ 20 µM and the Kd (HLA-A*69:01 [21]) was 0.162 µM. The Kd (HLA-A*26:01 [4]; [33]) was 0.0131 µM, the Kd (HLA-B*07:02; [33]) was ≥ 20 µM and the Kd (HLA-A*24:03 [7]; [33]) was ≥ 20 µM. The Kd (HLA-A*02:01 [8]; [33]) was 0.051 µM, the Kd (HLA-B*15:01 [10]; [33]) was 9.23 µM and the Kd (HLA-B*08:01; [33]) was ≥ 20 µM. The Kd (HLA-B*40:01; [33]) was ≥ 20 µM, the Kd (HLA-B*27:05; [33]) was ≥ 20 µM and the Kd (HLA-B*58:01; [33]) was ≥ 20 µM. For the same sequence, the Kd (HLA-A*03:01 [14]; [33]) was ≥ 20 µM.
With HLADQLIHQ the Kd (HLA-A*02:11 [15]; [31]) was 0.101 µM, the Kd (HLA-A*69:01 [2]; [31]) was ≥ 20 µM and the Kd (HLA-A*02:01 [16]; [31]) was 6.59 µM. The Kd (HLA-A*02:03; [31]) was 0.311 µM and the Kd (HLA-A*02:19 [17]) was ≥ 20 µM.
With FGAQMGWPV the Kd (HLA-B*27:03) was ≥ 20 µM, the Kd (HLA-A*26:01 [22]) was ≥ 20 µM and the Kd (HLA-A*23:01 [23]) was ≥ 20 µM. The Kd (HLA-A*24:03 [24]) was ≥ 20 µM, the Kd (HLA-A*02:01 [16]; [34]) was 0.0048 µM and the Kd (HLA-B*46:01 [25]) was ≥ 20 µM. For the same sequence, the Kd (HLA-B*15:01 [26]) was ≥ 20 µM, the Kd (HLA-B*57:01 [27]) was ≥ 20 µM and the Kd (HLA-A*02:16; [34]) was 0.0062 µM. The Kd (HLA-A*03:01 [28]) was ≥ 20 µM and the Kd (HLA-B*18:01) was ≥ 20 µM.
